# Data published in patent US20140031247.
# Columns and labels:
# [1] = tested on: biotinylated recombinant Notch1 substrate N1-Sb1
# [2] = tested on: N1-Sb1 substrate with P2 substitution C1752M
# [3] = tested on: N1-Sb1 substrate with P2 substitution C1752A
# [4] = tested on: N1-Sb1 substrate with P2 substitution C1752V
# Chain of biotinylated recombinant Notch1 substrate N1-Sb1 (chain, as listed by the source): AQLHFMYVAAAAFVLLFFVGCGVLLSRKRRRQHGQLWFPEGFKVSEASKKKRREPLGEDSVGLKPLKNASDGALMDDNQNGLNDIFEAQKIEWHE
Substance,apparent Km [1],rate of γ-secretase cleavage compared with WT substrate [2],Km [1],rate of γ-secretase cleavage compared with WT substrate [3],rate of γ-secretase cleavage compared with WT substrate [4]
γ-secretase of HeLa cell membrane,the apparent Km of N1-Sb1 cleavage by γ-secretase is 0.15±0.03 µM,–,–,–,–
γ-secretase with E280A PS1 (membrane of N2a cells stably expressing E280A PS1),–,E280A (185.5±7.4%) PS1,"the Km values for N1-Sb1 cleavage by PS1 wild-type, M146L, and E280A FAD mutants are 70, 49, and 50 nM, respectively",significantly reduced reactivity for all three forms of γ-secretase (20-30% remaining),had no effect on WT (left panel) and E280A PS1 (right panel)
γ-secretase with M146L PS1 (membrane of N2a cells stably expressing M146L PS1),–,significantly enhanced activity for M146L (166.4±6.1%),"the Km values for N1-Sb1 cleavage by PS1 wild-type, M146L, and E280A FAD mutants are 70, 49, and 50 nM, respectively",significantly reduced reactivity for all three forms of γ-secretase (20-30% remaining),considerably increased reactivity for M146L PS1 γ-secretase (141.3±17.9%0
γ-secretase with M146V PS1 (membrane of M146V PS1 knock-in mouse brain),–,enhanced activity for M146V knock-in PS1 (127.4±3.7%),"The Km values of WT and M146V PS1 are 60 and 48 nM, respectively",–,–
γ-secretase with wild type PS1 (membrane of knock-in wild type PS1 mouse brain),–,C1752M substrate also had no effect on WT PS1 (left panel),"The Km values of WT and M146V PS1 are 60 and 48 nM, respectively",–,–
γ-secretase with wild-type PS1 (membrane of N2a cells stably expressing WT PS1),–,C1752M substrate had no effect on WT (left panel),"the Km values for N1-Sb1 cleavage by PS1 wild-type, M146L, and E280A FAD mutants are 70, 49, and 50 nM, respectively",significantly reduced reactivity for all three forms of γ-secretase (20-30% remaining),had no effect on WT (left panel) and E280A PS1 (right panel)
